{
  "source": "paper doi:10.1101/207886",
  "target": "MBP-fused Cas3 (E. coli) (UniProt P38036)",
  "sequence (P38036 whole entry, the tested form may be a part)": "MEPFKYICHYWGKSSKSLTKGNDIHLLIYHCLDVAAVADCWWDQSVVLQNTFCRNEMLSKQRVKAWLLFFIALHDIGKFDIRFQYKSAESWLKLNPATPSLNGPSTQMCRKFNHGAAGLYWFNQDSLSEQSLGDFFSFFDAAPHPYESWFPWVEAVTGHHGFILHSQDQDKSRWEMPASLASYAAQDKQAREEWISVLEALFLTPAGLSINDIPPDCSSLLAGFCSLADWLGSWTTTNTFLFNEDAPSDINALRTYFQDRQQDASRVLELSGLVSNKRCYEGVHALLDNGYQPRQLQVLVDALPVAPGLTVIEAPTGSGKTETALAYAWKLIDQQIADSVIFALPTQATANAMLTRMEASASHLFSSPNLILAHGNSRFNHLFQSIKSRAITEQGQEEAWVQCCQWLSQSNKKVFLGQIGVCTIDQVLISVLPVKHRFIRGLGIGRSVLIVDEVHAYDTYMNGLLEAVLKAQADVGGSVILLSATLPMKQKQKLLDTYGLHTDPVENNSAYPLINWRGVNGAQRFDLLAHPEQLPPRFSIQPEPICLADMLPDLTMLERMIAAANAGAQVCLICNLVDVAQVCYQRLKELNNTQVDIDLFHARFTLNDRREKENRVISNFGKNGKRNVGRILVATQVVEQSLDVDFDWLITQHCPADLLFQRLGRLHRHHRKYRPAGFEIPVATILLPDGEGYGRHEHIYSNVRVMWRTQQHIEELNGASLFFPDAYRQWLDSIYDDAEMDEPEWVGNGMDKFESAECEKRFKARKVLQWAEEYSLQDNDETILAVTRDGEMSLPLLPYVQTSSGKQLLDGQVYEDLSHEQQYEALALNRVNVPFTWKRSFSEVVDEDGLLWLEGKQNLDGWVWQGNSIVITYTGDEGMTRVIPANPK",
  "assay": "single-molecule TIRF fluorescence",
  "data": [
    {"substance": "Cascade complex (RNA-guided surveillance complex), bound to dye-labelled target DNA (from UniProt Q46901 1-502)", "values": [
      {"measurement": "dwell-time", "value": 1.63, "unit": "s"}
    ]}
  ]
}
